# According to publication doi:10.1101/2025.10.12.681846v1 (bioRxiv, 2025):
# Read-outs that look alike come from different tables or passages of the source.
# Assays:
# [1] = target: mouse IgG1-Fc (Mus musculus, UniProt P01868); test: SPR binding to mouse IgG1-Fc; settings: for Kd: read-out: KD for IgG1-Fc, SPR, 25 °C, DPBS pH 7.4
# [2] = target: T1, mouse nostrin (Mus musculus, UniProt Q6WKZ7); test: SPR binding to mouse nostrin; settings: for Kd: read-out: KD for nostrin, SPR, 25 °C, DPBS pH 7.4
# T1 sequence (Q6WKZ7 1-506): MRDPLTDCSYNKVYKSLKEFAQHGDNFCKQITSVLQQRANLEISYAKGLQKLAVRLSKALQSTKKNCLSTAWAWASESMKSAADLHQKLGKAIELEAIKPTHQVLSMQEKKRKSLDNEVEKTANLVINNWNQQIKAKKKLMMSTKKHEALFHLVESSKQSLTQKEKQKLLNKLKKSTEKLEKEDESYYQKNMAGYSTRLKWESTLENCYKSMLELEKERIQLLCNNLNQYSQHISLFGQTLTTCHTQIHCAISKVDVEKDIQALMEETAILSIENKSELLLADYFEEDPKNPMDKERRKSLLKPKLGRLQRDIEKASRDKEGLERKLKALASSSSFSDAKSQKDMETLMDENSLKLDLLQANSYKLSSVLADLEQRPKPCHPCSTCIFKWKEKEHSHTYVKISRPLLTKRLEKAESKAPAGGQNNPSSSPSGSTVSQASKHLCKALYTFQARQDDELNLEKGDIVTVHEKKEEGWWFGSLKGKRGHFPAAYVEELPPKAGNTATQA
# [3] = target: human IgG1-Fc (Homo sapiens, UniProt P01857); test: SPR binding to human IgG1-Fc; settings: read-out: KD for human IgG1-Fc
# [4] = target: T2, human nostrin (Homo sapiens, UniProt Q8IVI9); test: SPR binding to human nostrin; settings: read-out: KD for human nostrin
# T2 sequence (Q8IVI9 1-506): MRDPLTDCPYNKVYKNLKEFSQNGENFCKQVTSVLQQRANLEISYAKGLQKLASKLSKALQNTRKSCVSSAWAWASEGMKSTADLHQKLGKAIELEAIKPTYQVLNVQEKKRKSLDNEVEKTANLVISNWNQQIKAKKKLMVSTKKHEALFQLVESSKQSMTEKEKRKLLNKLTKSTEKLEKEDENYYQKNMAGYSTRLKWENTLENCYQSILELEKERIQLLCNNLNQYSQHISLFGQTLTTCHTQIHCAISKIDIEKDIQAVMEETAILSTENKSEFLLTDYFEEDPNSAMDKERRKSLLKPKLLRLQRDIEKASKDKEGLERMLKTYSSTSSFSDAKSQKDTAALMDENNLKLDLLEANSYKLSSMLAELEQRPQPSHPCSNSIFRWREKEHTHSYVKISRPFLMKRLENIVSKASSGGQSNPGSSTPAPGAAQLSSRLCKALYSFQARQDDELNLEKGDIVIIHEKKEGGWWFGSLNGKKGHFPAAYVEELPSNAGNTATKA
# [5] = test system: STZ-induced type 1 diabetic mice; test: Type 1 diabetes treatment study in mice; assay type: in vivo, C57BL/6 mice
# [6] = test system: STZ-induced type 1 diabetic mice; test: Long-term therapy as weekly formulation in diabetic mice; assay type: in vivo, C57BL/6 mice; settings: for BG drop in the first few hours after injection: n = 5
# [7] = Pharmacokinetics after subcutaneous injection in diabetic mice; assay type: in vivo; settings: s.c. 12 mg/kg
# [8] = Pharmacokinetics after intravenous injection in healthy mice; assay type: in vivo, C57BL/6J mice; settings: i.v. 1 nmol/kg, two-compartment model, n = 5
# [9] = test system: type 1 diabetic mice; test: Intraperitoneal glucose tolerance test in diabetic mice; assay type: in vivo; settings: i.p. glucose 1.5 g/kg, n = 5
# [10] = test system: type 1 diabetic mice; test: In vivo glucose-responsive insulin release in mice; settings: for initial PIL: before glucose 3 g/kg
# [11] = test system: STZ-induced type 1 diabetic mice; test: Isoglycaemic clamp at hyperglycaemia in diabetic mice; assay type: in vivo; settings: BG clamped at 400 mg/dL; one day after 12 mg/kg; n = 5
# [12] = test system: healthy mice; test: Isoglycaemic; assay type: in vivo; settings: summary statement
# [13] = test system: type 1 diabetic minipigs; test: Type 1 diabetes treatment study in minipigs; assay type: in vivo, Bama minipigs; settings: n = 3; statistical time 0-168 h for insulin-129 and 0-24 h for Lantus
# [14] = Pharmacokinetic studies in diabetic minipigs; assay type: in vivo, Bama minipigs; settings: s.c., two-compartmental model, n = 3
# [15] = test system: type 1 diabetic minipigs; test: Fully automated insulin delivery system in diabetic minipigs; assay type: in vivo; settings: 48 h
# [16] = test system: diabetic mice; test: Toxicity evaluation and histomorphology in mice; assay type: in vivo; settings: one week post-injection, 10 mg/kg
# [17] = five days after 12 mg/kg, n = 5
# [18] = one day after 12 mg/kg, i.p. glucose 3 g/kg
# [19] = one day after 12 mg/kg, i.p. glucose 3 g/kg, n = 5
# Sequence of mouse IgG1-Fc (P01868 98-324 limits assumed): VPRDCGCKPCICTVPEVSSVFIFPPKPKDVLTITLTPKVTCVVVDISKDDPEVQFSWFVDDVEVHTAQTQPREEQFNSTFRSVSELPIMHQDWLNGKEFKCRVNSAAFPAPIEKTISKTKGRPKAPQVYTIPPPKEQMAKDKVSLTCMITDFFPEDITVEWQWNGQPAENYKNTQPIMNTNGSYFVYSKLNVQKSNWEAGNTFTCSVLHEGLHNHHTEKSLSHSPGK
substance,measurement,setting,value
insulin-129: recombinant human insulin with 4-carboxy-3-fluorophenylboronic acid (FPBA) covalently conjugated at A1 and B29 sites,increase in KD for IgG1-Fc,[1]; glucose from 5 to 20 mM,5.0 fold
same,Kd,[1]; 5 mM glucose,0.137 µM
same,Kd,[1]; 10 mM glucose,0.276 µM
same,Kd,[1]; 20 mM glucose,0.691 µM
same,Kd,[1]; absence of glucose,0.0424 µM
same,increase in KD for nostrin,[2]; glucose from 0 to 20 mM,19.5 fold
same,increase in KD for nostrin,[2]; glucose from 5 to 20 mM,8.4 fold
same,Kd,[2]; 5 mM glucose,0.201 µM
same,Kd,[2]; 10 mM glucose,0.605 µM
same,Kd,[2]; 20 mM glucose,1.68 µM
same,Kd,[2]; absence of glucose,0.086 µM
same,Kd,[3],0.0367 µM
same,Kd,[4],0.241 µM
same,lowest average BG level,"[5]; one hour after s.c. 12 mg/kg, mean ± s.d., n = 5, SD",76.0 ± 6.4 mg/dL
same,treatment duration among the three insulin analogues,"[5]; s.c. 4 mg/kg, insulin-1, insulin-29 and insulin-129, n = 5",longest duration
same,hypoglycaemia (BG < 70 mg/dL),"[5]; s.c. 4, 8 and 12 mg/kg, any mouse",No hypoglycaemia
same,extension of normoglycaemia compared with insulin glargine,[5]; single injection,approximately 47.5 folds
same,time kept normoglycaemic,"[5]; single s.c. 4 mg/kg, n = 5",46 h
same,time kept normoglycaemic,"[5]; single s.c. 8 mg/kg, n = 5",142 h
same,time kept normoglycaemic,"[5]; single s.c. 12 mg/kg, n = 5",190 h
same,normoglycaemia maintained by each injection,[6]; 10 mg/kg then three weekly 4.8 mg/kg s.c.,one week
same,time remaining effective before BG returned to original level,[6]; after the fourth injection,more than 800 hours
same,BG drop in the first few hours after injection,[6]; first injection (10 mg/kg s.c.),89.6 ± 13.1 mg/dL
same,BG drop in the first few hours after injection,[6]; fourth weekly injection (4.8 mg/kg s.c.),78.8 ± 8.8 mg/dL
same,stabilised BG,[6]; one day after the fourth injection,approximately 150 mg/dL
same,BG drop in the first few hours after injection,[6]; second weekly injection (4.8 mg/kg s.c.),79.6 ± 12.4 mg/dL
same,BG drop in the first few hours after injection,[6]; third weekly injection (4.8 mg/kg s.c.),77.8 ± 5.4 mg/dL
same,time to peak plasma insulin-129 level,[7]; ELISA,within one hour
same,peak average plasma insulin-129 level (PIL),"[7]; ELISA, n = 5",1320.0 ± 41.3 μU/mL
same,t1/2α,"[7]; two-compartment model, n = 5",5.4 ± 1.3 h
same,t1/2β,"[7]; two-compartment model, n = 5",147.8 ± 16.8 h
same,average t1/2β,[8],112.5 ± 17.4 h
same,BG before glucose administration,[9]; day 1 after 12 mg/kg,96.8 ± 19.7 mg/dL
same,peaking BG within 15 minutes,[9]; day 1 after 12 mg/kg,194.8 ± 31.9 mg/dL
same,BG before glucose administration,[9]; day 5 after 12 mg/kg,163.1 ± 27.7 mg/dL
same,peaking BG within 15 minutes,[9]; day 5 after 12 mg/kg,310.3 ± 44.2 mg/dL
same,synchronised increase in insulin level upon glucose injection,"[10]; STZ-induced type 1 diabetic mice, summary statement",more than 3 fold
same,initial PIL,[10]; [17],210.2 ± 31.7 μU/mL
same,peak PIL,"[10]; five days after 12 mg/kg, i.p. glucose 3 g/kg, n = 5",573.7 ± 40.0 μU/mL
same,PIL after decline within 120 minutes,[10]; [17],204.3 ± 52.0 μU/mL
same,initial PIL,"[10]; one day after 12 mg/kg, n = 5",258.6 ± 37.6 μU/mL
same,BG by 45 minutes,[10]; [18],below 200 mg/dL
same,increase in PIL,[10]; [18],approximately 4.2 fold
same,BG spike at 30 minutes,[10]; [19],310.7 ± 29.2 mg/dL
same,peak PIL,[10]; [19],1080.4 ± 49.6 μU/mL
same,PIL after decline,"[10]; one day after 12 mg/kg, in tandem with the BG reduction, n = 5",257.3 ± 45.2 μU/mL
same,mean glucose infusion rate compared with insulin glargine (5 U/kg),[11],comparable mean glucose infusion rates
same,temporal change in blood glucose clearance determined by clamp studies,[12],2 fold
same,time BG remained within the target range (70 to 200 mg/dL),[13],73.0%
same,half-life,[14],127.5 ± 36.6 h
same,BG levels below 50 mg/dL,[15]; first of three minipigs,0%
same,"BG levels below 50 mg/dL, average","[15]; mean ± s.d., n = 3, SD",1.7 ± 2.2%
same,BG levels below 50 mg/dL,[15]; second of three minipigs,1.0%
same,BG levels below 50 mg/dL,[15]; third of three minipigs,4.2%
same,histomorphological analysis of major organs by H&E staining,[16],no apparent pathological alterations
